Measured values reported in US20160289340A1 (published 2016).
Positions count from the first letter of the chain named.

B1: 3rd humanized MC41 IgG (antibody, V domains shown)
VH: QVQLKESGPGLVAPSKTLSLTCTVSGFSLSSQGVYWIRQPPGKGLEWIGAIWAGGSTNYNSALMSRLSISKDNSKSQVFLKMNSLQTDDTAMYYCARVDGYRGYNMDYWGQGTSVTVSS
VL: ENVLTQSPAIMSATPGEKVTMTCSASSSVSYMHWYQQKSSTSPKLWIYDTSKLASGVPGRFSGSGSGNSYTLTISSMEAEDVATYYCFQGSGYPLTFGAGTKLEIKR
notes: also called humanized 3rd MC41
B2: 2nd humanized MC41 IgG (antibody, V domains shown)
VH: B1 VH with S114L
VL: B1 VL with M32L
notes: also called hMC41; humanized 2nd MC41
B3: chimeric MC41 (chMC41) (antibody, V domains shown)
VH: B1 VH with T17S, L20I, I37V, I48L
VL: B1 VL with T14S, T71S, I105L
notes: Intact chimeric IgG of MC41
B4: 3rd scFv phage clone of humanized MC48 variant (scFv)
scFv: QVQLQESGPGLVKPSETLSLTCTVSGFSLTSYGVSWIRQPPGKGLEWIGVIWGEGSTNYHSVLISRLTISKDNSKSQVFLKLNSLQTDDTATYYCAMTGTAYWGQGTLVTVSSGGGGSGGGGSGGGGSQIVLTQSPAIMSASPGEKVTMTCSASSSVSYMHWYQQKPGLAPRLLIYDTSKLSSGVPGRFSGSGSGTSYSLTISRLEAEDAATYYCHQWSSSPHTFGGGTKVEIKR
notes: also called 3rd humanized MC48 scFv phage; hMC48 (3rd)
B5: 4th scFv phage clone of humanized MC48 variant (scFv)
scFv: QVQLKESGPGLVAPSQSLSITCTVSGFSLTSYGVSWIRQPPGKGLEWIGVIWGEGSTNYHSVLISRLTISKDNSKSQVFLKLNSLQTDDTATYYCAMTGTAYWGQGTLVTVSSGGGGSGGGGSGGGGSQIVLTQSPAIMSASPGEKVTMTCSASSSVSYMHWYQQKSGTSPKRWIYDTSKLSSGVPGRFSGSGSGTSYSLTISRLEAEDAATYYCHQWSSSPHTFGGGTKVEIKR
notes: also called 4th humanized MC48 scFv phage; hMC48 (4th)

Experiments:
BSA control protein [1] = target: T1, BSA control protein (bovine, UniProt P02769 25-607); experiment: ELISA, serially diluted IgG on coated BSA, anti-human IgG-HRP
T1 construct: Unconjugated BSA used as negative control coating next to SSEA-4-BSA glycoconjugate; also called bovine serum albumin
T1 sequence (P02769 25-607 limits assumed): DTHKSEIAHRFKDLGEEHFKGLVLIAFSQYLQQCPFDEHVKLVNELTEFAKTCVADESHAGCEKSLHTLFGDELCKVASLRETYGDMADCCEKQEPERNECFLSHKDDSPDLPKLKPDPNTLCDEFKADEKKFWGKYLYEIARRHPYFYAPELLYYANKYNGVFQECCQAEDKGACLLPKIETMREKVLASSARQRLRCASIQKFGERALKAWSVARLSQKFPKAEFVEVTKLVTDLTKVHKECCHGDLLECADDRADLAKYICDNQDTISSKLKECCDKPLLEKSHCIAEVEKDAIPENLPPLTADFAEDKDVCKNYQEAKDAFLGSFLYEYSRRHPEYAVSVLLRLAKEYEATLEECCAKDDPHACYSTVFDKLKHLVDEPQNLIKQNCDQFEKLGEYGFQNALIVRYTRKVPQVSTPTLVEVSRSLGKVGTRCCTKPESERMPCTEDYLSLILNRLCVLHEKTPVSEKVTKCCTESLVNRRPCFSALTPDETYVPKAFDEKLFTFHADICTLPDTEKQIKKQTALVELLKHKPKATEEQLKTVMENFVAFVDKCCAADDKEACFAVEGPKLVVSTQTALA

BSA control protein [2] = target: T1, BSA control protein; experiment: phage ELISA, serially diluted phage on coated BSA

Row | Binder | binding result (BSA control protein [1]) | binding result (BSA control protein [2])
1 | B1 | no binding | 
2 | B2 | no binding | 
3 | B3 | no binding | 
4 | B4 |  | no binding
5 | B5 |  | no binding
